Experimental data published in patent US20260327294 (published 2026).
Read-outs that look alike come from different tables or passages of the source.

Assays:
[1] = target: RSV A2 pre-F (RSV A2); assay: BLI
[2] = target: RSV A2 pre-F (RSV A2); assay: ELISA
[3] = target: RSV A2 pre-F (RSV A2); assay: BLI; remark: listed apart in the source
[4] = target: RSV A2 pre-F (RSV A2); assay: ELISA; remark: listed apart in the source

Row | Binder | Kd [1] [nM] | EC50 [2] [µg/mL] | Kd [3] [nM] | EC50 [4] [µg/mL]
1 | F6-49 (antibody, V domains shown) VH: QVQLVESGGGVVLPGTSLTLSCAASGFTFRHYAIHWVRQTPGGGLEWVAALPYDGSTKYFAESVKDRFTIYRDNSQAAAFLHMSSLTPGDTALYYCARSTYSYEYSFLGYFYYMDVWGRGTSVTVSS VL: QSALTQPASVSGSPGQSISISCTGTSRDVGAYTYISWSQQHTGQAPKLLIYDVSERPSGVSDRFSGSKTGDTASLAISGLQAEDEAVYYCSSYTDSNTVVFGGGTKVTVL | 0.713 | 0.0104 | – | –
2 | F6-65 (antibody, V domains shown) VH: QVQLVESGGGLVQPGDSLRLSCAASGFTFKSYGLHWVRQAPGKGLEWVAGLSYDGFSGYYADSVKGRFTVSRDNSKNTLYLHINSLRSEDTSIYYCARGGDGEIFSWIGYFYYMDVWGKGTTVTVFS VL: QSALTQPASVSGSPGQSITISCSGTTNDVGGYDYVSWYQHHPGKAPKLLIYDVSQRPSGVSSRFSGSKSGNTASLTISGLQTDDEAHYYCSSYTITNTLKFGGGTTLTVL | 0.96 | 0.00998 | – | –
3 | F6-47 (antibody, V domains shown) VH: QVQLLESGGNVVQPGRSLSLSCVASGFALKSYAVHWVRQAPGKGLEWVAFVPYDAVTNYYADSVKGRFTVSRDISKNTVNLHMNRLMGEDTAVYFCARGATSGSYSFLGYNYYMDVWGRGTAVTVSS VL: QSALTQPASVSGSPGQPITISCTGTSSDVGAYTYVSWYQHHPGKAPKLILFDVTDRPSGVSHRFSGSKSGNTASLTISGLQSEDEAEYYCSSYTDRNTIVFGGGTTLTVL | 0.343 | 0.00998 | – | –
4 | F6-37 (antibody, V domains shown) VH: QVHLVESGGNVVHPGTSLSLSCAGSGFTFKSHAIHWVRQAPGRGLEWVAFVPYDGATNYYADSLKGRFTVSRDNSRNTVSLHMNRLEGQDTAVYFCARGATSGSYSFLGYNYYMDVWGRGTTVTVSS VL: QSALTQPASVSGSPGQSITISCTGTSSDVGAYTYVSWYQQLPGKAPKLLLFDVTDRPSGVAHRFSGSKSGNTASLTISGLQAEDEAEYYCSSYTDRNTLVFGGGTKLTVL | 0.68 | 0.0117 | – | –
5 | F6-27 (antibody, V domains shown) VH: QEQLMESGGDVVRPGTSLTLSCKASGFAFRSHALHWVRQAPGKGLEWVSVISYDGGHTNSADSLEGRFTVSRDNSKNILYLQMNSLRTEDTAVYFCARSEGSYRSWPGYFYYMDVWGNGTTVTVSS VL: QSALTQPASVSGSPGQSITISCIGTSSDVGGYYYVSWYQQHPGRAPKLIIFDVTDRPSGVSSRFSGSQSGNTASLTISGLQPEDEADYYCNSYSSSTIPYVFGSGTKVTVL | 0.671 | 0.00987 | – | –
6 | F6-56 (antibody, V domains shown) VH: QVQLVESGGDVVRPGTSLRLSCAASGFAFRSHALHWVRQAPGKGLEWVSVISYDGGHTNSADSVKGRFTVSRDNSKNILFLQMNSLRIEDTAVYFCARSEGSYRSWPGYFYYMDVWGNGTTVTVSS VL: QSALTQPASVSGSPGQSITISCIGTSSDVGGYYYVSWYQQHPGKAPKLIIFDVSDRPSGVSSRFSGSQSGNTASLTISGLQAEDEADYYCNSYSSSTTPYVFGSGTKVTVL | 0.381 | 0.0141 | – | –
7 | F6-88 (antibody, V domains shown) VH: QVQLVQSGAEVKKPGASVRVSCGASGNSFTRHGFSWVRQAPGQGLEWIGLISAHKSNTIYAQKFQGRVTVTTDTSTSTAYMELRSLRSDDTAVYYCVRDVTVVTDVGSGYDFPMDVWGQGTTVTVSS VL: QSVLTQSPSASGTPGQRVTISCSGSNSNIGGDYVHWYQQVPGTAPRLLIYNTNQRPSGVPDRFSGSKSGTSGSLAISGLRSEDEADYYCATWDDSLNGWVFGGGTKLTVL | 0.86 | 0.0169 | – | –
8 | F6-63 (antibody, V domains shown) VH: QVQVVESGGGVVEPGGSLSLSCAASGFSFKMHAMHWVRQAPGKGLEWVAFIPYDGSSQYYADSVKGRFTIYRDNFKNTLYLQMNSLRVEDTSLYYCARGGEEGAWSWIGYNSYMDVWGRGTAVTVSS VL: QSALTQPASVSGSPGQSITISCSGTSSDVGGYDYVCWYQKHPGESPRLIIYDVSRRPSGVSNRFSGSKSGNTASLTISGLQAEDEADYSCSSYTSSNTLIFGGGTKLTVL | 0.783 | 0.0161 | – | –
9 | MEDI8897 (antibody, V domains shown) VH: QVQLVQSGAEVKKPGSSVMVSCQASGGLLEDYIINWVRQAPGQGPEWMGGIIPVLGTVHYGPKFQGRVTITADESTDTAYMELSSLRSEDTAMYYCATETALVVSETYLPHYFDNWGQGTLVTVSS VL: DIQMTQSPSSLSAAVGDRVTITCQASQDIVNYLNWYQQKPGKAPKLLIYVASNLETGVPSRFSGSGSGTDFSLTISSLQPEDVATYYCQQYDNLPLTFGGGTKVEIKR | 0.122 | 0.0146 | 0.379 | 0.0313
10 | F6-38 (antibody, V domains shown) VH: QVQLEESGGGVVQPGRSLTLSCAASGFTLKNYAIHWVRQAPGKGLEWVAVTAYDGFTSYYADSVKSRITISRDNSKNTAYLHLNNVRDDDAAFYYCARGGEGAFSWLGYLQYMDVWGRGTTVAVSS VL: QSTLTQPASASGSPGQSITISCTGTSNDIGSYTYVSWYQHHPGKAPKLMIYDVNERPSGISHRFSGSKSGNTASLTISGLQPEDEADYYCNSYTINNTLKFGGGTRLTVL | 1.38 | 0.00712 | – | –
